Assay results: patent US9383366B2, “Blue fluorescent protein and methods of use thereof” (WiSys Technology Foundation, Inc., priority 2013, dated 2016)

Key:
[1] = Spectral properties (absorption and fluorescence emission) of Sandercyanin protein; type: physicochemical
[2] = test system: hydra; experiment: Injection of Sandercyanin protein into hydra, fluorescence localization; type: in vivo; details: injected into hydra
Description: We are currently imploring the localization of Sandercyanin in model organisms.

[3] = on excitation at 380 nm and 630 nm; cited from earlier work
[4] = band maximum used for Stokes shift

B1: Sandercyanin protein: native blue fluorescent bili-binding lipocalin protein from walleye mucus, SEQ ID NO: 1 (protein)
chain: QFIKPGRCPKPAVQEDFDAARYLGVWYDIQRLPNKFQKGECATATYSLSPGVGFSVFNRERLANGTIKSVIGSAIAEDPCEPAKLQFFHENAAPVPYWVLSTDYDNYALVYSCINLGASHAAYASIVSRQPTLPEETIKKLQGTMSSFGVGVDTLLTTNQDAAYCSAMNQ
modifications: Sandercyanin
Q: What does the source list for B1?
A: absorption [1, 4]: 375 nm; emission [1, 4]: 675 nm; Stokes shift ([1]; difference between absorption and emission band maxima): ~300 nm; fluorescence after injection [2]: showed fluorescence on the surface of tentacles; emission maxima [3]: 678 nm
